Laboratory results: US20170007716A1 (published 2017)

How the values were obtained:
[1] = target: T1, human FAP on HT1080 cells (HT1080-huFAP, stable transfectants) (UniProt Q12884 1-760); assay: FACS
huFAP fusion protein [2] = target: T2, huFAP fusion protein (UniProt Q12884 27-760); assay: ELISA
[3] = target: T1, human FAP on HT1080 cells …; assay: FACS; DAR 3.48
huFAP fusion protein [4] = target: T2, huFAP fusion protein; assay: ELISA; DAR 3.48

T2 sequence (Q12884 27-760): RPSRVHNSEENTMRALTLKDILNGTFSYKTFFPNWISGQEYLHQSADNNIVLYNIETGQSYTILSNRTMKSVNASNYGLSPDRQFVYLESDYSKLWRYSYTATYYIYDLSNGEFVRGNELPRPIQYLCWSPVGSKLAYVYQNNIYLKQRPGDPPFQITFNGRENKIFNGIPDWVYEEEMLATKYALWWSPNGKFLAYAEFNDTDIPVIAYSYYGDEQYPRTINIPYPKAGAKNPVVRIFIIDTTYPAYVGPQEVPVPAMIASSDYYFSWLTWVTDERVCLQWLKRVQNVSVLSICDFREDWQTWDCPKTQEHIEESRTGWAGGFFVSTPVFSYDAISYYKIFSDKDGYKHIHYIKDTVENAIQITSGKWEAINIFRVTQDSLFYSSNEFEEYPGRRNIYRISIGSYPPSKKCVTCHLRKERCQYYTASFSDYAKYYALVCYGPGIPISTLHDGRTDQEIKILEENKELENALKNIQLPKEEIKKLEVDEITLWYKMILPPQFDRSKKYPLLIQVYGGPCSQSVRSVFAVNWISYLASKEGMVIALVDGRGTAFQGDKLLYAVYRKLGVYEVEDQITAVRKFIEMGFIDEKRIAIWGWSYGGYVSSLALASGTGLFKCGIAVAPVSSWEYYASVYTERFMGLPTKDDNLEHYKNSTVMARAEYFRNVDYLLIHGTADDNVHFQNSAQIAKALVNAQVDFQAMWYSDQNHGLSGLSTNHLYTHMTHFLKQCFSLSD
T1 sequence (Q12884 whole entry, the tested form may be a part): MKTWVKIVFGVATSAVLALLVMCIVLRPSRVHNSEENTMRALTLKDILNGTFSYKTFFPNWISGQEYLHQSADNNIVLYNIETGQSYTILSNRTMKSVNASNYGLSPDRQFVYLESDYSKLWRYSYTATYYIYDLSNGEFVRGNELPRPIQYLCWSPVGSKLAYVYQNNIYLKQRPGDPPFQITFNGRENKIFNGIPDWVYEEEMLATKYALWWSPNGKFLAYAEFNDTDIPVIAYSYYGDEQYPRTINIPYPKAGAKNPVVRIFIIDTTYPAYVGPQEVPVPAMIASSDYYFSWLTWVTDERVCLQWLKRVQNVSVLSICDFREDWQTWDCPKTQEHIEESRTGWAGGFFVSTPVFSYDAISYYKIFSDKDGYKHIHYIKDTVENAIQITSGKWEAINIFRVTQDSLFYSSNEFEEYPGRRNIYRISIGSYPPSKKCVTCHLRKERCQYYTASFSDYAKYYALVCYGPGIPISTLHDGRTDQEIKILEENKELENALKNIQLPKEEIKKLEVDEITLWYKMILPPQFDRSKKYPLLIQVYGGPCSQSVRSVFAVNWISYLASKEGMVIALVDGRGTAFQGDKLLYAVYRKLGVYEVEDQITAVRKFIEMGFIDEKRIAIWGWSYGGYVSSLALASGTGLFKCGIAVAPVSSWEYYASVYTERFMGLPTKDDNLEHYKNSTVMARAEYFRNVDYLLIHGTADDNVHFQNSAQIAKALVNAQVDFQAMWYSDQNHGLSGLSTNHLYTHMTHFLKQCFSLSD

B1: humanized anti-FAP IgG1 hu36 (hu36-IgG1) (antibody, V domains shown)
VH: QVQLVQSGAEVKKPGASVKVSCKASGYTFTENIIHWVRQAPGQGLEWMGWFHPGSGSIKYNEKFKDRVTMTADTSTSTVYMELSSLRSEDTAVYYCARHGGTGRGAMDYWGQGTLVTVSS
VL: DIQMTQSPSSLSASVGDRVTITCRASKSVSTSAYSYMHWYQQKPGKAPKLLIYLASNLESGVPSRFSGSGSGTDFTLTISSLQPEDFATYYCQHSRELPYTFGQGTKLEIKR
EC50 [1]: 0.067 nM | EC50 (huFAP fusion protein [2]): 0.21 nM

B2: Anti-FAP hu36:TAM471 ADC (ADC-471) (antibody, V domains shown)
VH: QVQLVQSGAEVKKPGASVKVSCKASGYTFTENIIHWVRQAPGQGLEWMGWFHPGSGSIKYNEKFKDRVTMTADTSTSTVYMELSSLRSEDTAVYYCARHGGTGRGAMDYWGQGTLVTVSS
VL: DIQMTQSPSSLSASVGDRVTITCRASKSVSTSAYSYMHWYQQKPGKAPKLLIYLASNLESGVPSRFSGSGSGTDFTLTISSLQPEDFATYYCQHSRELPYTFGQGTKLEIKR
modifications: cytolysin TAM471 through maleimidocaproyl-vcPABA linker on cysteine residues (not site-specific); cytolysin TAM471 through maleimidocaproyl-vcPABA linker on cysteine residues (not site-specific), DAR 3.48 for the whole antibody
EC50 [3]: 0.081 nM | EC50 (huFAP fusion protein [4]): 0.153 nM
